From patent publication US4746508A, “Drug administration” (Beth Israel Hospital Assn., priority 1984, dated 1988)

How the values were obtained:
[1] = HPLC k' factor value (hydrophobicity) of unconjugated steroid; assay type: physicochemical; details: octadecylsilane column, 75% methanol in water, apparent pH 5.0
Method: Preferably the steroid used in the invention is characterized in that the unconjugated derivative of the steroid is retained on a hydrophobic column for a length of time sufficient to produce a k' factor value of at least about 4, the k' factor value being obtained by subjecting a monomeric solution of 1 mg/ml of such steroid derivative to high-performance liquid column chromatography at 3,000 psi, using a 250×4.6 mm column having octadecylsilane-coated 5 μm silica particles as the stationary phase and a mobile phase, delivered at 1.0 ml/min., consisting of 75% methanol in ater, v/v, buffered with 0.005M KH2 PO4 /H3 PO4 to give an apparent pH value, as measured using a glass electrode, of 5.0, the k' factor value being defined by [formula] where t0 is the retention time in the column of the solvent front and tr is the retention time in the column of the steroid derivative as measured by obtaining the elution profile of the steroid derivative by absorbance at 210 nm.
The structure of the steroid molecule affects its chemical properties and thus its functioning as a drug transporting molecule. We believe that all of the steroid molecules used in the invention facilitate transport by self-associating to form reversed micelles within the membrane across which the drug is being transported; these reversed micelles, it is believed, function as pores, allowing the drug to pass through. A measure of a given steroid molecule's ability to form such reversed micelles is the hydrophobicity of the unconjugated form of the molecule, a property which can be quantified using the k' factor value, which is computed by observing the steroid's retention time in a high-performance liquid chromatography (HPLC) column under the conditions described above. As mentioned above, the k' value of the unconjugated derivative of the steroid should be at least about 4 for the steroid to be suitable in the therapeutic compositions of the invention.
The k' and CMT of the steroids used in the compositions of the invention are influenced by whether the steroid is conjugated at C21 and, if so, by the nature of the conjugating group. Additionally, a polar group at position 16 is essential for solubility (See position E on formula 1). Because the k' factor value is influenced by the polarity of any conjugating group, unconjugated derivatives must be used in numerical comparisons involving steroids which are conjugated with different groups, or comparisons involving both conjugated and unconjugated steroids. Overall hydrophobicity and k' factor value generally decrease as the polarity of the conjugating group increases. However, such decrease is not a reflection of the hydrophobicity of the steroid nucleus. […]

[2] = Intranasal administration of proinsulin to sheep (insulin RIA adjusted for cross-reactivity); assay type: in vivo; details: for Proinsulin (μU/ml above baseline): Sheep 196 Study 25, 1.5 mg into each nostril
Method: Commercially available proinsulin (Eli Lilly & Co., Indianapolis, Ind.) was mixed with the sodium tauro-24,25-dihydrofusidate solution or in 0.15M NaCl, pH 7.6 to give a final concentration of 6 mg/ml of proinsulin and 1% (w/v) sodium tauro-24,25-dihydrofusidate. Sheep were administered by nasal drops 1.5 mg (250 μl) of the solution into each nostril at time 0. Sheep 25 was administered proinsulin without adjuvant as described above.

[3] = in vivo
Method: Corticotropin releasing-factor (CRF, a hormone of MW 4,000) (Dr. George Chrousos, National Institute of Health, Bethesda, MD) was dissolved in 0.15 NaCl and mixed with the 2% solution of sodium tauro-24,25-dihydrofusidate. CRF was also prepared without adjuvant. Two sheep were administered 350 mg ketamine intravenously and a total of 460 μg of CRF as a liquid, by drops into each side of the nose of the sheep at time 0. The dose of CRF was approximately 10 μg/kg body weight.

Compound: CC(=O)O[C@H]1C[C@@]2(C)[C@@H](C[C@@H](O)[C@H]3[C@@]4(C)CC[C@@H](O)[C@@H](C)[C@@H]4CC[C@@]32C)/C1=C(\CCCC(C)C)C(=O)O [24,25-dihydrofusidic acid]
- k' factor value [1]: 27.1

Compound: Proinsulin without sodium tauro-24,25-dihydrofusidate: commercially available proinsulin (Eli Lilly) in 0.15M NaCl, pH 7.6, without adjuvant
- Proinsulin (μU/ml above baseline) ([2]; 0 min): 0 μU/ml
- Proinsulin (μU/ml above baseline) ([2]; 10 min): 2.8 μU/ml
- Proinsulin (μU/ml above baseline) ([2]; 15 min): 28 μU/ml
- Proinsulin (μU/ml above baseline) ([2]; 20 min): 56 μU/ml
- Proinsulin (μU/ml above baseline) ([2]; 30 min): 22 μU/ml
- Proinsulin (μU/ml above baseline) ([2]; 60 min): 0 μU/ml
- Proinsulin (μU/ml above baseline) ([2]; 90 min): 0 μU/ml
- Proinsulin (μU/ml above baseline) ([2]; 120 min): 0 μU/ml
- Proinsulin (μU/ml above baseline) ([2]; 180 min): 0 μU/ml
- Proinsulin (μU/ml above baseline) ([2]; 240 min): 2.8 μU/ml
- Proinsulin (μU/ml above baseline) ([2]; +5 min): 0 μU/ml
- Proinsulin (μU/ml above baseline) ([2]; -15 min): 0 μU/ml
- absorption of nasally administered proinsulin ([2]; sheep, nasal drops): absorbed at a slower rate and to a much reduced extent

Compound: CC(=O)OC1CC2(C)C(CC(O)C3C4(C)CCC(OC(C)=O)C(C)C4CCC32C)C1=C(CCC=C(C)C)C(=O)O (stereo not drawn) [3-acetoxyl-fusidic acid]
- k' factor value [1]: 26.4

Compound: CC(=O)O[C@@H]1[C@H]2[C@H](C)[C@H](O)CC[C@]2(C)[C@@H]2CC[C@H]3/C(=C(\CCC=C(C)C)C(=O)O)[C@@H](OC(C)=O)C[C@]3(C)[C@@]2(C)[C@H]1O [cephalosporin P1]
- k' factor value [1]: 9.5

Compound: CC(=O)O[C@H]1C[C@@]2(C)[C@@H](C[C@@H](O)[C@H]3[C@@]4(C)CC[C@@H](O)[C@@H](C)[C@@H]4CC[C@@]32C)/C1=C(\CCC=C(C)C)C(=O)O [fusidic acid, reference compound]
- k' factor value [1]: 20.7

Compound: Corticotropin releasing-factor without tauro-24,25-dihydrofusidate: corticotropin releasing-factor, a hormone of MW 4,000, prepared without adjuvant
- increase of CRF level [3]: increased only slightly
